In US20250215403A1, “Compositions and Methods for Cardiac Tissue Regeneration” (Temple University - Of The Commonwealth System Of Higher …, priority 2022, published 2025):

How the values were obtained:
[1] = system: NRVM (neonatal rat ventricular CMs); test: NRVM transfection (modRNA, siRNA, PH755): CM cell cycle markers and CM number; assay type: cell-based
Description: In vivo transfection of modRNA was done as described previously in a recent method paper (Magadum A., et al., Circulation. 2020, 141 (15): 1249-1265; Sultana N., et al., Mol Ther, 2017, 25 (6): 1306-1315) using sucrose citrate buffer containing 10 μl of sucrose in nuclease-free water (0.3 g/ml), 10 μl of citrate (0.1M pH-7; Sigma) mixed with 10 μl of different concentrations of modRNA in saline to a total volume of 30 μl. Immediately after LAD ligation, mice received an intra-myocardial injection of modRNA (100 μg) in total volume of 30 μL at 3 different sites (mid-anterior×2 places and apical anterior) in the peri-infarct area (Magadum A., et al., Circulation. 2020, 141 (15): 1249-1265; Magadum, A., et al., 2021, Advanced Science, 9:2004661). For in vitro transfection, RNAiMAX transfection reagent (Life Technologies) was used according to manufacturer's recommendation (Magadum A., et al., Circulation. 2020, 141 (15): 1249-1265; Sultana N., et al., Mol Ther, 2017, 25 (6): 1306-1315).
Mice hearts were harvested, weighed, and fixed in 4% PFA/PBS overnight on shaker and then washed with PBS for 1 hour and incubated in 30% sucrose/PBS at 4° C. for 12-18 hours. Hearts were then fixed in OCT and frozen at −80° C. (Magadum A., et al., Circulation. 2020, 141 (15): 1249-1265). Transverse heart sections (6-8 μm) were made using a cryostat. Frozen sections were rehydrated in PBS for 5-10 min followed by permeabilization with PBS with 0.1% Triton™ X100 (PBST) for 7-8 min. Heart sections were then treated with 3% H2O2 for 5 min and washed (3×5 min) with PBST. The samples were then blocked with PBS+10% Donkey normal serum+0.1% Triton™ X100 (PBSST) for 1 hour at room temperature. Primary antibodies (see complete list of primary antibodies used for this Example in Table 2 below) diluted in PBST were added and incubated overnight at 4° C. Slides were washed with PBST (3×5 min) followed by incubation with a secondary antibody (Invitrogen, 1:200) diluted in PBST for 90-120 min at room temperature. The samples were further washed with PBST (3×5 min) and stained with DAPI or Hoechst 33342 (1 μg/ml) diluted in PBST for 7 min. […] For immunostaining with wheat germ agglutinin (WGA) for CM size quantification, images were captured at 40× magnification, and ImageJ was used to determine the area of each cell. Quantitative analyses involved counting of multiple fields from 5-8 mouse hearts per group, and 3-4 sections/heart (˜50 cells per field assessed, for a total ˜250 cells per sample). […] BrdU positive CMs were counted in multiple fields from three independent samples per group and 3 sections/heart. The total number of CMs counted was ˜1-1.5×10^3 CMs per section. […]

cardiomyocytes (CM) = test: CM division lineage tracing in α-MHC-MADM mice post-MI; assay type: in vivo, mouse
Description: All animal procedures were performed under protocols approved by the Temple University Animal Care and Use Committee. Male and female C57BL6 mice were used. Different modRNAs (100 μg/heart) were injected directly into the myocardium in open chest surgery. Three to ten animals used for each experiment. For mice survival, C57BL6 mice (10-12-weeks-old) treated with Luc or PSAT1 modRNAs (n=10) post induction of MI and were followed for the indicated time. Deaths were monitored and documented over time. Tamoxifen-inducible CM-restricted MADM mice (α-MHC-MADM mice) mice were generated by crossing MADM mice (Jackson laboratory) to […].^Tg(Myh6-cre/Esr1*) 1Jmk/J (Cat no. 005657) mice to get α-MHC-MADM mice (Yuko, A. E., et al., 2021, Redox Biology, 47:102162). Tamoxifen (Sigma-Aldrich) was dissolved in sesame oil at 10 mg/ml as stock solution. To induce Cre activation, tamoxifen was administered to mice by intraperitoneal (IP) injection five times (48 h interval between administrations) at 40 mg/kg body weight for adult mice (Yuko, A. E., et al., 2021, Redox Biology, 47:102162). The tissues were harvested at mentioned time for analysis.
To analyze the cardiomyocyte division in vivo post-MI, cardiomyocyte specific mosaic analysis with double markers (MADM) mice, generated as described previously, were used (Yuko, A. E., et al., 2021, Redox Biology, 47:102162). The CM-specific transgenic mice were generated by crossing MADM mice (Jackson laboratory) to B6.FVB (129)-A1cf.^Tg(Myh6-cre/Esr1*) 1 Jmk/J (Cat no. 005657) mice to get α-MHC-MADM mice. In the MADM system, because of interchromosomal Cre-loxP recombination after S phase of the cell cycle, the daughter cells will get labeled (single colored) with either GFP (Green) or RFP (Red). The MADM single-labeling can only be attained by end of the cell cycle through cytokinesis. The inducible MADM system warrants temporal control of recombination and offers direct evidence for cell division. […]

B1: PSAT1 modRNA: modified mRNA with N1-methylpseudouridine, transcribed in vitro, encoding phosphoserine aminotransferase 1 (ORF SEQ ID NO: 1, RNA SEQ ID NO: 2) (nucleic acid)
chain: AUGGAAGCCACCAAGCAAGUGGUUAACUUUGGGCCCGGGCCUGCCAAGCUGCCACACUCGGUAUUGUUGGAGAUCCAGAAGCAGCUACUAGACUACAGAGGACUCGGCAUCAGUGUGCUCGAAAUGAGUCACAGGUCAUCAGAUUUUGCCAAGAUUAUUGGCAAUACAGAGAAUCUUGUGAGGGAAUUGCUAGCUGUUCCCAACAACUACAAGGUGAUCUUUGUACAAGGAGGUGGGUCUGGCCAGUUCAGUGCUGUCCCCUUAAAUCUGAUUGGCCUGAAAGCUGGAAGGAGUGCUGACUACGUGGUGACCGGAGCUUGGUCAGCUAAGGCUGCGGAAGAAGCCAAGAAGUUUGGAACGGUGAACAUUGUCCACCCUAAACUUGGAAGUUACACAAAAAUUCCAGACCCAAGCACCUGGAACCUCAACCCGGACGCCUCCUAUGUAUACUUCUGUGCAAACGAGACUGUGCACGGGGUGGAGUUUGACUUCGUACCUGACGUCAAGGGAGCGGUGCUGGUCUGUGACAUGUCCUCAAACUUCUUAUCCAGGCCGGUGGAUGUUUCCAAGUUUGGUGUGAUUUUCGCUGGUGCUCAGAAGAAUGUUGGCUCUGCCGGGGUGACGGUGGUGAUUGUCCGGGAUGACCUGCUGGGGUUCUCGCUCAGAGAGUGCCCAUCAGUCCUUGACUACAAAGUGCAGGCUGGGAACAACUCUUUGUAUAACACACCUCCGUGCUUCAGCAUCUACGUCAUGGGCAUGGUCCUGGAAUGGAUCAAGAACAACGGCGGGGCCGCAGCCAUGGAGAAGCUCAGCUCCAUCAAAUCCCAAAUGAUUUAUGAGAUCAUUGAUAAUUCUCAAGGAUUUUAUGUAUGCCCAGUGGAGCGCCAGAAUAGAAGCAGGAUGAACAUCCCAUUUCGCAUUGGCAACGCCAAAGGAGACGAAGCUUUGGAAAAGCGGUUUCUUGACAAGGCGGUAGAACUCAACAUGAUCUCCUUGAAGGGGCACAGGUCAGUGGGAGGCAUUCGUGCCUCUCUGUAUAACGCUGUCACAACCGAAGACGUUGAGAAGCUGGCGGCCUUCAUGAAGAAUUUCUUGGAGAUGCAUCAGCUGUGA
modifications: N1-methylpseudouridine
CM mitosis (pH3+) ([1]; NRVM, after 3 days, vs Luc modRNA): significantly induced
CM number ([1]; NRVM, in 5 days, vs Luc modRNA): increased
CM cell cycle restriction under SSP inhibition ([1]; NRVM, PSAT1 modRNA plus PH755 10 μM, compared to control, significantly lower rate than PSAT1 modRNA alone): partially reversed
dedifferentiation of CMs ([1]; post-PSAT1 modRNA expression): Increased
location of the increase in single color CMs in the heart (cardiomyocytes (CM); 1-month post-MI): mainly in the infarct border zone
% single color (green or red positive) CMs compared to total labeled CMs (cardiomyocytes (CM); 1-month post-MI, compared to Luc modRNA): increased
nucleation of the majority of single color CMs (cardiomyocytes (CM); 28 days post-MI): mononucleated
